B1: Ipo11 (protein, UniProt Q8K2V6 1-975, looked up)
Importin-11: MDLNSASSVVLQVLTQATSQDTAVLKPAEEQLKQWETQPGFYSVLLNIFTNHTLDINVRWLAVLYFKHGIDRYWRRVAPHALSEEEKSTLRAGLITNFNEPINQIATQIAVLIAKVARLDCPRQWPELIPTLVESVKVQDDLRQHRALLTFYHVTKTLASKRLAADRKLFYDLASGIYNFACSLWNHHTDTFLQHVSSGNEAAVLSSLERTLLSLKVLRKLTVNGFVEPHKNMEVMGFLHGIFERLKQFLECSRSIGTDNVCRDRLEKTIILFTKVLLDFLDQHPISFTPLIQRSLEFSVSYVFTEVGEGVTFERFIVQCMNLIKMIVKNYAYKPSKNFEDSSPETLEAHKIKMAFFTYPTLTEICRRLVSHYFLLTEEELTMWEEDPEGFTVEETGGDSWKYSLRPCTEVLFIDIFHEYNQTLTPVLLEMMQTLEGPTNVEDMNALLIKDAVYNAVGLAAFELFDSVDFDQWFKTQLLPELQVSHNRYKPLRRRVIWLIGQWISVKFKSDLRPMLYEAICNLLQDQDLVVRIETATTLKLTVDDFEFRTDQFLPYLETMFTLLFQLLQQVTECDTKMHVLHVLSCVIERVNVQIRPYVGCLVQYLPLLWKQSEEHNMLRCAILTTLIHLVQGLGADSKNLYPFLLPVIQLSTDVSQPPHVYLLEDGLELWLVTLENSPCVTPELLRIFQNMSPLLELSSENLRTCFKIINGYIFLSSTEFLQTYAAGLCQSFYELLPEITTEGQVQVLKVVENALKVNPVLGPQMFQRILPCVFRGVIEGERYPVVMSIYLAVMGRVLLQNTSFFSSLLNEMGHEFNQEMDQLLGNVIEMWVDRMDNITQPERKKLSALALLSLLPSDNSVIQDKFCGIINISVEALHDVMTEDPETRTYKDCMLMSQHEEPKVTEDEEPPTEQDKRKKMLALKDPVHTVSLQQFIYEKLKAQQEILGEQGFQSLMETVDTEIVTQLQEFLQGF
B2: Cul5 (protein, UniProt Q9D5V5 1-780, looked up)
Cullin-5: MATSNLLKNKGSLQFEDKWDFMHPIVLKLLRQESVTKQQWFDLFSDVHAVCLWDDKGSSKIHQALKEDILEFIKQAQARVLSHQDDTALLKAYIVEWRKFFTQCDILPKPFCQLEVTLLGKQSSNKKSNMEDSIVRKLMLDTWNESIFSNIKNRLQDSAMKLVHAERLGEAFDSQLVIGVRESYVNLCSNPEDKLQIYRDNFEKAYLDSTERFYRTQAPSYLQQNGVQNYMKYADAKLKEEEKRALRYLETRRECNSVEALMECCVNALVTSFKETILAECQGMIKRNETEKLHLMFSLMDKVPNGIEPMLKDLEEHIISAGLADMVAAAETITTDSEKYVEQLLTLFNRFSKLVKEAFQDDPRFLTARDKAYKAVVNDATIFKLELPLKQKGVGLKTQPESKCPELLANYCDMLLRKTPLSKKLTSEEIEAKLKEVLLVLKYVQNKDVFMRYHKAHLTRRLILDISADSEIEENMVEWLREVGMPADYVNKLARMFQDIKVSEDLNQAFKEMHKNNKLALPADSVNIKILNAGAWSRSSEKVFVSLPTELEDLIPEVEEFYKKNHSGRKLHWHHLMSNGIITFKNEVGQYDLEVTTFQLAVLFAWNQRPREKISFENLKLATELPDAELRRTLWSLVAFPKLKRQVLLYDPQVNSPKDFTEGTLFSVNQDFSLIKNAKVQKRGKINLIGRLQLTTERMREEENEGIVQLRILRTQEAIIQIMKMRKKISNAQLQTELVEILKNMFLPQKKMIKEQMEWLIEHRYIRRDEADINTFIYMA
B3: Psmd8 (protein, UniProt Q9CX56 1-353, looked up)
26S proteasome non-ATPase …: MFIKGRAAKTPRGEPRRSSRGGRKLAVVAPPPVLGSTSRPHFRRESIARRRCRKSGRRLAASRKMAATAATVNGSTTVSSSGPAATSVGILQAAAGMYEQLKDEWNRKNPNLSKCGEELGRLKLVLLELNFLPTTGTKLTKQQLILARDILEIGAQWSILCKDIPSFERYMAQLKCYYFDYKEQLPESAYMHQLLGLNLLFLLSQNRVAEFHTELERLPAKDIQTNVYIKHPVSLEQYLMEGSYNKVFLAKGNIPAESYTFFIDILLDTIRDEIAGCIEKAYEKILFAEATRILFFSTPKKMTDYAKKRGWVLGPNNYYSFASQQQKPEDSTIPSTELAKQVIEYARQLEMIV
B4: Dctn2 (protein, UniProt Q99KJ8 2-402, looked up)
Dynactin subunit 2: ADPKYADLPGIARNEPDVYETSDLPEDDQAEFDAEELSSTSVEHIIVNPNAAYDKFKDKRVGTKGLDFSDRIGKTKRTGYESGDYEMLGEGLGVKETPQQKYQRLLHEVQELTTEVEKIKTTVKESATEEKLTPVVLAKQLAALKQQLVASHLEKLLGPDAAINLADPDGALAKRLLLQLEATKSSKGSSGGKATAGAPPDSSLVTYELHSRPEQDKFSQAAKVAELEKRLTELEATVRCDQDAQNPLSAGLQGACLMETVELLQAKVSALDLAVLDQVEARLQSVLGKVNEIAKHKASVEDADTQNKVHQLYETIQRWSPVASTLPELVQRLVTIKQLHEQAMQFGQLLTHLDTTQQMMASSLKDNTALLTQVQTTMRENLATVEGNFASIDARMKRLGK
B5: Kpna4 (protein, UniProt O35343 2-521, looked up)
Importin subunit alpha-3: ADNEKLDNQRLKNFKNKGRDLETMRRQRNEVVVELRKNKRDEHLLKRRNVPQEDICEDSDIDGDYRVQNTSLEAIVQNASSDNQGIQLSAVQAARKLLSSDRNPPIDDLIKSGILPILVHCLERDDNPSLQFEAAWALTNIASGTSEQTQAVVQSNAVPLFLRLLHSPHQNVCEQAVWALGNIIGDGPQCRDYVISLGVVKPLLSFISPSIPITFLRNVTWVMVNLCRHKDPPPPMETIQEILPALCVLIHHTDVNILVDTVWALSYLTDAGNEQIQMVIDSGIVPHLVPLLSHQEVKVQTAALRAVGNIVTGTDEQTQVVLNCDALSHFPALLTHPKEKINKEAVWFLSNITAGNQQQVQAVIDANLVPMIIHLLDKGDFGTQKEAAWAISNLTISGRKDQVAYLIQQNVIPPFCNLLTVKDAQVVQVVLDGLSNILKMAEDQAETIANLIEECGGLEKIEQLQNHENEDIYKLAYEIIDQFFSSDDIDEDPSLVPESVQGGTFGFNSSTNVPTEGFQF
B6: Canx (protein, UniProt P35564 21-591, looked up)
Calnexin: HDGHDDDAIDIEDDLDDVIEEVEDSKSKSDASTPPSPKVTYKAPVPTGEVYFADSFDRGSLSGWILSKAKKDDTDDEIAKYDGKWEVDEMKETKLPGDKGLVLMSRAKHHAISAKLNKPFLFDTKPLIVQYEVNFQNGIECGGAYVKLLSKTAELSLDQFHDKTPYTIMFGPDKCGEDYKLHFIFRHKNPKTGVYEEKHAKRPDADLKTYFTDKKTHLYTLILNPDNSFEILVDQSVVNSGNLLNDMTPPVNPSREIEDPEDRKPEDWDERPKIADPDAVKPDDWDEDAPSKIPDEEATKPEGWLDDEPEYIPDPDAEKPEDWDEDMDGEWEAPQIANPKCESAPGCGVWQRPMIDNPNYKGKWKPPMIDNPNYQGIWKPRKIPNPDFFEDLEPFKMTPFSAIGLELWSMTSDIFFDNFIISGDRRVVDDWANDGWGLKKAADGAAEPGVVLQMLEAAEERPWLWVVYILTVALPVFLVILFCCSGKKQSNAMEYKKTDAPQPDVKDEEGKEEEKNKRDEEEEEEKLEEKQKSDAEEDGVTGSQDEEDSKPKAEEDEILNRSPRNRKPRRE

Test system: DYT-TOR1A MEF EVs
Assay: Quantitative LC-MS/MS proteomics of EVs from drug-treated DYT-TOR1A MEF cultures (ritonavir, salubrinal)
Assay type: cell-based, mouse
Parameters: key to RTV Corrective Direction / RTV Corrective Direction, Grwd1 / RTV Corrective Direction, Srrm2 / RTV Corrective Direction, Rbm17 / RTV Corrective Direction, Dcaf8 / RTV Corrective Direction, Edil3 / RTV Corrective Direction, Timp3 / RTV Corrective Direction, Heatr3 / RTV Corrective Direction, Brd4 / RTV Corrective Direction, P3h4 / RTV Corrective Direction, Pacsin3 / RTV Corrective Direction, Naa50 / RTV Corrective Direction, Lpar6 / RTV Corrective Direction, Ndrg1 / RTV Corrective Direction, Kntc1 / RTV Corrective Direction, Cdk11b / RTV Corrective Direction, Sumo1 / RTV Corrective Direction, Lsm4 / RTV Corrective Direction, Hmga2 / RTV Corrective Direction, Cstf1 / RTV Corrective Direction, Tes / RTV Corrective Direction, Sbno1 / RTV Corrective Direction, Unc119b / RTV Corrective Direction, Cfdp1 / RTV Corrective Direction, Sec61b: YES = protein abundance effect opposite to DYT/WT
Details: EV protein abundance, DYT + RTV (ritonavir) vs DYT, direction compared with DYT/WT

| Molecule | RTV Corrective Direction |
| --- | --- |
| B1 | YES |
| B2 | YES |
| B3 | YES |
| B4 | YES |
| B5 | YES |

Same assay, conditions: EV protein abundance, ritonavir (RTV)-treated DYT vs DYT

| Molecule | DYT + RTV/DYT Cohen's d |
| --- | --- |
| B1 | 9.75 |
| B2 | 13.04 |
| B3 | 23.45 |
| B4 | 5.51 |
| B5 | 2.38 |
| B6 | −0.16 |

Test system: WT MEF EVs
Assay: Quantitative LC-MS/MS proteomics of EVs from ISRIB-treated WT MEF cultures
Assay type: cell-based, mouse
Parameters: key to ISRIB and DYT Parallel Direction / ISRIB and DYT Parallel Direction, Ctdsp1 / ISRIB and DYT Parallel Direction, Pcdh19 / ISRIB and DYT Parallel Direction, Tspan7 / ISRIB and DYT Parallel Direction, Myo1e / ISRIB and DYT Parallel Direction, Plpp3 / ISRIB and DYT Parallel Direction, Sh3bp4 / ISRIB and DYT Parallel Direction, Dnajc7 / ISRIB and DYT Parallel Direction, Drg1 / ISRIB and DYT Parallel Direction, Maea: YES = protein abundance effect similar to DYT/WT
Details: EV protein abundance, ISRIB-treated WT vs WT

| Molecule | WT + ISRIB/WT Cohen's d |
| --- | --- |
| B1 | −1.97 |
| B2 | −3.39 |
| B3 | −3.31 |
| B4 | −0.53 |
| B5 | −3.18 |
| B6 | 0.64 |

Same assay, conditions: EV protein abundance, WT + ISRIB vs WT, direction compared with DYT/WT

| Molecule | ISRIB and DYT Parallel Direction |
| --- | --- |
| B1 | YES |
| B2 | YES |
| B3 | YES |
| B4 | YES |
| B5 | YES |

From US20260266848A1, “COMPOSITIONS AND METHODS FOR DIAGNOSING AND TREATING DYSTONIA” (Duke University, priority 2023, published 2026)
